{"source": "patent US11739132B2", "about": "“Separation moieties and methods of use thereof” (Werewolf Therapeutics, Inc., priority 2019, dated 2023)", "key": {"[1]": {"target": "T1, Hepsin (Homo sapiens, UniProt P05981)", "T1 construct": "purchased R&D Systems (Bio-techne) 4776-SE", "T1 sequence (P05981 163-417 limits assumed)": "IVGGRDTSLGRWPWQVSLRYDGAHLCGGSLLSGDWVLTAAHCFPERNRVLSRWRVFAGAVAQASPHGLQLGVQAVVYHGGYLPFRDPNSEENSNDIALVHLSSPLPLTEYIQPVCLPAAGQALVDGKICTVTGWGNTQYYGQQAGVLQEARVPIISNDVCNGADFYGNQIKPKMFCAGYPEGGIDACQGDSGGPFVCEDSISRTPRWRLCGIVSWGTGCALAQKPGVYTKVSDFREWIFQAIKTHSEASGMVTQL", "T1 sequence (P05981 1-162 partner limits assumed)": "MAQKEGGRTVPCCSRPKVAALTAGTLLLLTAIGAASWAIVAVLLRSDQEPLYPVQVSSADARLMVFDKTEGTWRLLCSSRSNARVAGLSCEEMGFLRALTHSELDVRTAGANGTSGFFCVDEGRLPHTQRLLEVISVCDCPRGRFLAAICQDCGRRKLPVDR", "assay": "30-mer library counter-screening MSP-MS, Hepsin", "assay_type": "biochemical", "experimental": "(§1) Protease specificity screening was performed using Multiplexed Substrate Profiling by Mass Spectrometry (MSP-MS), the method described in, e.g. O'Donoghue A. J. et al., Nat Methods., 2012; 9(11): 1095-1100. This method employs a physico-chemically diverse peptide library as substrates for proteases, and reactions are monitored over time with mass spectrometric detection of cleaved products. The resulting cleavages are assessed for specific cleavage in the enzyme-treated sample by comparison with results from a no-enzyme control incubation.\n(§2) Enzymes were activated and assayed following the manufacturer's recommendations.\nHepsin was pre-activated overnight at 37° C. in the manufacturer recommended buffer: 100 mM TRIS, 10 mM CaCl2, 150 mM NaCl, 0.05% Brij-35, pH 8.0. Activity was measured with 2.4 or 24 nM enzyme in the buffer: 50 mM TRIS HCl at pH 7.4.\n(§3) Counter-screening was performed against the enzymes Thrombin, Factor Xa and Hepsin using this library as well, and for calibration of activity, a positive-control peptide bearing favorable motifs for these enzymes was also designed (ALU30-19).\n(§4) Catalytic efficiency (kcat/KM) estimations were used to rank the top cleaved substrates in the MSP-MS reaction. Peptides were quantified by mass spectrometric label-free quantitation from the MS1 precursor ion peak areas for each peptide. Enzyme progress curves were modeled from six-time point measurements in GraphPad Prism. Data were fitted using non-linear least squares fitting to the first order kinetics equation:\n(§5) [formula] where Y=percent product formation or substrate consumption, and t=time. The observed rate is a function of the enzyme concentration [E0], and an observed catalytic efficiency (kcat/KM) in units M^−1s^−1\n(§6) Counter-screening with Thrombin, Factor Xa and Hepsin was also performed following the same analysis. The library peptide Alu30-19 was designed to include authentic sites for each enzyme, for comparison of overall cleavage efficiency as well as cleavage site specificity within each motif. The substrate designed for Factor Xa has the motif FNPR|TFGS (SEQ ID NO: 248), derived from the Factor Xa cleavage site in Thrombin. The substrate motif for Thrombin was FPR|, a common tool substrate motif. The substrate motif for hepsin was RKRR|GSRG (SEQ ID NO: 249) from filaggrin."}, "[2]": {"target": "T2, CTSL1 (Homo sapiens, UniProt P07711)", "T2 sequence (P07711 114-333)": "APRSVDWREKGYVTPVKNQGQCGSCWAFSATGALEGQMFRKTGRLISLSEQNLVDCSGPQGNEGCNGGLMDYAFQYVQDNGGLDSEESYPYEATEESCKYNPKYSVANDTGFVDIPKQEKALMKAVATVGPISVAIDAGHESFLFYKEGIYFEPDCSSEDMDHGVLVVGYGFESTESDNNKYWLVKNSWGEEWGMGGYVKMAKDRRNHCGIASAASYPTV", "assay": "30-mer tandem linker library MSP-MS, CTSL1", "assay_type": "biochemical", "experimental": "as §1, §2\n(§7) For CTSL1, enzyme was activated by pre-incubation in assay buffer (50 mM MES, 5 mM DTT, 1 mM EDTA, pH=6) for 15 min. MSP-MS reactions were then started with the mixing of enzyme and substrate, at final CTSL1 concentration of 0.04 ng/μl (0.77 nM), and peptide substrate concentration at 500 nM.\nThis hypothesis was tested in the context of the hybrid linker design experiment. Shown in FIG. 46 are the results of cleavage of two matched 30-mer peptides with the following sequences:\n(§8) To analyze the catalytic efficiency of candidate tandem linker designs, a tailored library approach using MSP-MS was applied. For the tailored library, a set of nineteen synthetic peptides, 30 amino acids in length (30-mers), were designed to test whether sequence context affects the efficiency of cleavage. Peptides were assayed in a multiplex format together as a substrate library with individual recombinant enzymes, using MSP-MS. For quantitative comparisons, kinetic analysis was performed over a time course, and results are reported either as a catalytic efficiency kcat/KM for well-behaved first-order kinetics, or as observed rates as kobs for more complex kinetic behavior.\nas §4, §5"}, "[3]": {"target": "T3, Cathepsin K (CTSK) (Homo sapiens, UniProt P43235)", "T3 sequence (P43235 115-329)": "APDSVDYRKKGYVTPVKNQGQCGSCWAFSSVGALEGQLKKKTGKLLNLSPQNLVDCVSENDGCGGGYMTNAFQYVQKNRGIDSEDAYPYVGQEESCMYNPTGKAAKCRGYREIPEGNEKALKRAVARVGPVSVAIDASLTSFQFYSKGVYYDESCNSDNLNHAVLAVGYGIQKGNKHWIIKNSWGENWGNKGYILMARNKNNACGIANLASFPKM", "assay": "Counter-screening of CTSL1 FRET substrates with Cathepsin K", "assay_type": "biochemical", "settings": "specific activity", "experimental": "Counter-screening of CTSL1_1 and CTSL1_2 was performed with the enzyme Cathepsin K (CTSK). […] For comparison, the specific activity for reference substrates such as Z-LR-AMC and Z-FR-AMC is 15,000-25,000 pmol/min/μg, with the average value indicated by a dashed line in FIG. 47."}, "[4]": {"target": "T2, CTSL1", "assay": "In vitro FRET kinetics with CTSL1", "assay_type": "biochemical", "experimental": "as §2, §7\nAdditional in vitro kinetic experiments were performed to characterize a new candidate motif for CTSL1 enzyme; the CTSL1_2 motif has the sequence […] (SEQ ID NO: 199). […] Yet, initial experiments with the CTSL1_2 FRET substrate were inconclusive, possibly due to artifacts in the FRET assay; therefore, a new FRET peptide construct was designed with the 9-mer sequence […] (SEQ ID NO: 236).\nAll of the FRET substrates used in these studies have a methoxycoumarin (Mca) fluorophore and dinitrophenyl-lysyl (Dnp) quencher pair at the N- and C-termini of the sequences, respectively."}, "[5]": {"settings": "cited from earlier work"}, "[6]": {"tested_on": "activated T cells relative to NK cells", "settings": "cited from earlier work"}, "[7]": {"target": "T4, Factor Xa (Homo sapiens, UniProt P00742)", "T4 construct": "purchased R&D Systems (Bio-techne) 1063-SE-010", "T4 sequence (P00742 235-488 limits assumed)": "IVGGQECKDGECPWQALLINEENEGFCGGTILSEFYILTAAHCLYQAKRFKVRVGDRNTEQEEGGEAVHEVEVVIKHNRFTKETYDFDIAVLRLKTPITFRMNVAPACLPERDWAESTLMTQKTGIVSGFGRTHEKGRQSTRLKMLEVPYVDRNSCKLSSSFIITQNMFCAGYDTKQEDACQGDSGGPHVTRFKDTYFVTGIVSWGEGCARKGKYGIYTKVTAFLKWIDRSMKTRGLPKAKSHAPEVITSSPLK", "T4 sequence (P00742 41-179 partner limits assumed)": "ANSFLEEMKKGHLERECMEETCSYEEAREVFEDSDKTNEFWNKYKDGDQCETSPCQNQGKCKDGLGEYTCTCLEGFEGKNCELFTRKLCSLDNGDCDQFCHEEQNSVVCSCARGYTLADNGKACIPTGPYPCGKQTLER", "assay": "30-mer library counter-screening MSP-MS, Factor Xa", "assay_type": "biochemical", "experimental": "as §1, §2\nFactor Xa was assayed at 4.7 nM enzyme, at 37° C. in the manufacturer recommended buffer: 50 mM TRIS, 10 mM CaCl2, 150 mM NaCl, pH 7.5.\nas §3\nas §4, with “Data were fitted using non-linear least squares fitting to the first order kinetics equation:” left out"}, "[8]": {"target": "T5, MMP9 (Homo sapiens, UniProt P14780)", "T5 construct": "purchased R&D Systems (Bio-techne) 911-MP-010", "T5 sequence (P14780 107-707 limits assumed)": "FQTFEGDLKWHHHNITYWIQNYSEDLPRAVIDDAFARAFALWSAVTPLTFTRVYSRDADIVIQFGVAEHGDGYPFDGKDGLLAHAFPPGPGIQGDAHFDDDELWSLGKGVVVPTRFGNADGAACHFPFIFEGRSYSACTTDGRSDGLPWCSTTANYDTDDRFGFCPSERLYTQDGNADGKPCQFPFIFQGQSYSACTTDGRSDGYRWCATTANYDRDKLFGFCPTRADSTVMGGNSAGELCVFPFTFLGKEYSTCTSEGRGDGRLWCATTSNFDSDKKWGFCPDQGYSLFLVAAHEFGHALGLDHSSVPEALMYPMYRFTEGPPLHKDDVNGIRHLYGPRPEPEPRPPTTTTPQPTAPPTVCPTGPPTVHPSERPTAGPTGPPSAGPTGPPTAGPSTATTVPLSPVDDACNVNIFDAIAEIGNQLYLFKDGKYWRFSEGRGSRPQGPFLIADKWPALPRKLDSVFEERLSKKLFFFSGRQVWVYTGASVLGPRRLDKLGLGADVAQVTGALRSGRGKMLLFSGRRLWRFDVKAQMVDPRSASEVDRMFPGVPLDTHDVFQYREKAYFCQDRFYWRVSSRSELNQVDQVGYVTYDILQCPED", "assay": "30-mer tandem linker library MSP-MS, MMP9", "assay_type": "biochemical", "experimental": "as §1, §2\nMMP9 was activated by incubation with 1 mM p-amino phenyl mercuric acetate (prepared from a stock at 100 mM in DMSO) for 24h at 37° C. in activation buffer: 50 mM TRIS HCl (pH 7.5), 10 mM CaCl2, 150 mM NaCl, 0.05% Brij35. The final enzyme concentration used for fluorescence assays was 2.5 nM.\nTo analyze the catalytic efficiency of candidate tandem linker designs, a tailored library approach using MSP-MS was applied. […] For quantitative comparisons, kinetic analysis was performed over a time course, and results are reported either as a catalytic efficiency kcat/KM for well-behaved first-order kinetics, or as observed rates as kobs for more complex kinetic behavior. […]"}, "[9]": {"target": "T6, FAPα (Homo sapiens, UniProt Q12884)", "T6 construct": "purchased R&D Systems (Bio-techne) 930-ADB-010", "T6 sequence (Q12884 1-760)": "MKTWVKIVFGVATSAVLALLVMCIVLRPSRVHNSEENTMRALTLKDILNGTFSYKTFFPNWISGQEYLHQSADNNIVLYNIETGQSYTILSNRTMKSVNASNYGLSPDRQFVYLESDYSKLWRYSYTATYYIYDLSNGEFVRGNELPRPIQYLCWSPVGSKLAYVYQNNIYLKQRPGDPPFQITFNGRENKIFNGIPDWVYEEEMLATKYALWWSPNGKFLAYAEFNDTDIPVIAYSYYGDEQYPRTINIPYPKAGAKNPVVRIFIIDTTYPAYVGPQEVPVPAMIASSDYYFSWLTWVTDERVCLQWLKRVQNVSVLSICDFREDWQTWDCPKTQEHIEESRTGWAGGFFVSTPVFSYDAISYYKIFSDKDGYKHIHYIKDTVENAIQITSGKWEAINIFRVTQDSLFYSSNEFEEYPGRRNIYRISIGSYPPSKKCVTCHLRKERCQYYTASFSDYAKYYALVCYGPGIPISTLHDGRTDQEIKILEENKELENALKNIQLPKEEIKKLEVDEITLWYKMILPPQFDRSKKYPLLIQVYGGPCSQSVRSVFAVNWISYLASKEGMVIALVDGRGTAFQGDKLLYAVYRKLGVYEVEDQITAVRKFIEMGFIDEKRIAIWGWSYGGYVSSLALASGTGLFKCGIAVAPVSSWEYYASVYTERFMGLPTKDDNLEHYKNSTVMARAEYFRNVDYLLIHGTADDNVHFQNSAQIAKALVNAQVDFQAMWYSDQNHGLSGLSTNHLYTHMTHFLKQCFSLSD", "assay": "30-mer tandem linker library MSP-MS, FAPα", "assay_type": "biochemical", "experimental": "as §1, §2\nFAPα activity was tested with fluorescence detection using a generic Z-GP-AMC substrate. For FRET assays, the final enzyme concentration was 5 nM and the buffer was 50 mM TRIS HCl, 1 M NaCl, 1 mg/mL BSA, pH 7.5.\nas §8, §4, §5"}, "[10]": {"target": "T7, Thrombin (Homo sapiens, UniProt P00734)", "T7 construct": "purchased R&D Systems (Bio-techne) 2196-SE-200", "assay": "30-mer library counter-screening MSP-MS, Thrombin", "assay_type": "biochemical", "experimental": "as §1, §2\nThrombin was activated following the manufacturer's recommended conditions by pre-incubation with the enzyme with thermolysin for 15 min, and then the thermolysin was quenched with 1,10 phenanthroline treatment. Activated thrombin was assayed at 1.2 nM in activation buffer: 50 mM TRIS HCl, 10 mM CaCl2, 150 mM NaCl, 0.05% (w/v) Brij-35, pH 7.5.\nas §3, §4, §5, §6"}, "[11]": {"tested_on": "full set of five targeted enzymes; thrombin, Factor Xa, and hepsin", "assay": "30-mer tandem linker design: comparison of cleavage efficiencies across enzymes", "assay_type": "biochemical, human", "from_the_text": "To generate the most efficient tandem linker, the cleavage efficiencies for each of the targeted enzymes toward the 30-mer library peptides can be compared (FIG. 64).\nReplacement of the ADAM17_2 motif with ADAM17_i may also enhance activity toward FAP-alpha and CTSL1, even if ADAM17 activity enhancement is minor, and hepsin susceptibility would be predicted to be reduced."}, "[12]": {"settings": "matched 30-mer peptides SEQ ID NO: 207 (CTSL1_1) and 219 (CTSL1_2)"}}, "note": "Entries after “also recorded” stand apart in the source; their conditions may differ. No end group written: not given here.", "data": [{"substance": "ALFFSSPP (also: FRET fluorophore and quencher) [CTSL1_2]", "values": [{"measurement": "Relative efficiency of cleavage by hepsin", "setting": "[1]", "result": "cleaved at a much slower rate than CTSL1_1"}, {"measurement": "Relative efficiency of 30-mer peptide cleavage by CTSL1", "setting": "[2]", "result": "rapidly cleaved"}, {"measurement": "+1 site product formation by CTSL1", "setting": "[2]; [12]", "result": "more rapidly formed"}, {"measurement": "−1 site product formation by CTSL1", "setting": "[2]; [12]", "result": "did not"}, {"measurement": "Cleavage by CTSK, lower level than the CTSL1_1 substrate", "setting": "[3]", "result": 15, "unit": "×"}, {"measurement": "Cleavage of 8-mer FRET substrate by CTSL1", "setting": "[4]; 8-mer FRET peptide, Mca/Dnp pair", "result": "not cleaved"}, {"measurement": "Cleavage of 9-mer FRET substrate by CTSL1", "setting": "[4]; 9-mer sequence ALFFSSPPS (SEQ ID NO: 236)", "result": "comparable catalytic efficiency to the CTSL1_1 motif; also recorded: cleaved as a 9-mer FRET peptide"}]}, {"substance": "Bay 50-4798: IL-2 variant IL2/N88R, clinically tested as a low-toxicity version of IL-2", "values": [{"measurement": "Levels of CD4+CD25+ T cells in clinical trials", "setting": "[5]; cancer patients and HIV patients", "result": "increased the levels of CD4+CD25+ T cells"}, {"measurement": "Safety and tolerability in clinical trials", "setting": "[5]; human, in vivo", "result": "considerably safer and more tolerable than aldesleukin"}, {"measurement": "Selectivity of stimulated proliferation", "setting": "[6]", "result": "selectively stimulate the proliferation of activated T cells relative to NK cells"}]}, {"substance": "KGGALFKSSFPGGPAGIGPLAQKLKSSGGS [Alu30-5]", "values": [{"measurement": "Relative efficiency of 30-mer peptide cleavage by Factor Xa", "setting": "[7]", "result": "significant cleavage"}]}, {"substance": "RGSGGGPAGLYAQGSGGGPAGLYAQGGSGK [Alu30-2]", "values": [{"measurement": "Relative efficiency of 30-mer substrate degradation/cleavage by MMP9", "setting": "[8]", "result": "more efficient than the Alu30-1 peptide"}, {"measurement": "Relative efficiency of 30-mer peptide degradation by FAPα", "setting": "[9]", "result": "efficiently cleaved"}, {"measurement": "Relative efficiency of 30-mer peptide cleavage by thrombin", "setting": "[10]", "result": "less susceptible to thrombin"}]}, {"substance": "SGGFPRSGGSFNPRTFGSKRKRRGSRGGGG [Alu30-19, reference compound]", "values": [{"measurement": "Time to complete degradation by Factor Xa", "setting": "[7]", "result": "< 5", "unit": "min"}, {"measurement": "Time to cleavage at all three motifs by hepsin", "setting": "[1]", "result": "≤ 15", "unit": "min"}, {"measurement": "Apparent catalytic efficiency, hepsin", "setting": "[1]; order of magnitude", "result": "~10^5 M^−1s^−1"}]}, {"substance": "SGPLAQKLKSSGPAGLYAQALFKSSFPGSK [Alu30-16]", "values": [{"measurement": "Activity toward the full set of five targeted enzymes", "setting": "[11]", "result": "generally high activity"}, {"measurement": "Susceptibility to thrombin, Factor Xa, and hepsin", "setting": "[11]", "result": "lowest susceptibility"}]}]}
